Laboratory results from paper PMC4844016 (ACS chemical neuroscience, 2015).

Legend:
[1] = tested on: SH-SY5Y neuroblastoma cells; assay: Apoptosis assay, Annexin V-FITC staining; type: cell-based; conditions: SHSY-5Y cells, 1 μM, data not shown
[2] = tested on: differentiated PC12 cells; assay: MTT assay; type: cell-based; conditions: NGF-differentiated PC12 cells, 10 µM freshly prepared peptide, 24 h, 37°C; normalized to media control; three independent experiments, 6 wells
[3] = Electron microscopy of assembly morphology; type: physicochemical; conditions: EM
[4] = Bis-ANS fluorescence, exposure of hydrophobic surfaces; type: physicochemical; conditions: 20 µM peptide incubated at 37°C, shaking
[5] = Oligomerization by PICUP and SDS-PAGE; type: physicochemical; conditions: 25–35 μM peptide, cross-linked, SDS-PAGE, silver staining
[6] = Quasielastic light scattering spectroscopy; type: physicochemical; conditions: QLS
Thioflavin T = type: physicochemical; conditions: 20 µM peptide, 40 µM ThT, pH 7.5, 37°C, shaking
[7] = Thermodynamics of fibril formation; type: physicochemical; conditions: ΔG^0 = −RT ln (1/Cr); 20 μM, 37°C, 21 days without shaking; four independent experiments
[8] = Ion mobility-mass spectrometry, oligomer distributions; type: physicochemical; conditions: IM-MS, 10 μM peptide in 10 mM ammonium acetate, pH 7.4

Compound | effect of positive control on cells [1] | decrease in MTT metabolism [2] | globules, size range, Day 0 ([3]; 37°C with shaking, day 0, Image J) | long fibrils, size range, Day 7 ([3]; 37°C with shaking, day 7) | short fibrils, assembly length, Day 7 ([3]; 37°C with shaking, day 7, value in parentheses) | annuli, inside diameter, Day 0 ([3]; day 0) | annuli, outside diameter, Day 0 ([3]; day 0) | time of peak Bis-ANS fluorescence [4] [h] | oligomer size distribution by PICUP [5] | RH of small particles, initial distribution ([6]; 0.5 h of incubation) | RH of larger particles also observed, initial distribution ([6]; 0.5 h of incubation, relatively few particles) | RH of oligomers remaining after 24 h ([6]; 24 h of incubation) | maximal RH after 24 h ([6]; 24 h of incubation) [nm] | time ThT fluorescence remained constant (lag) (Thioflavin T) | ΔG^0 of fibril formation [7] | oligomers assigned in ATD of z/n = −5/2 peak [8]
CN[C@@H]1C[C@H]2O[C@@](C)([C@@H]1OC)n1c3ccccc3c3c4c(c5c6ccccc6n2c5c31)C(=O)NC4 [staurosporine] | complete disruption of membrane integrity |  |  |  |  |  |  |  |  |  |  |  |  |  |  | 
Amyloid β−protein (1–42) [Aβ42] |  | ≈ 23% | 11–23 nm | 9–21 nm | 56–303 nm | 4–11 nm | 13–25 nm | 4 | prominent node of band intensity at pentamer-hexamer | 8–10 nm | 100–1000 nm | 8–10 nm | > 1000 | ≈ 1 h | −8.45 (0.12) kcal/mole | dimer, tetramer, hexamer, and dodecamer
